One data set has as its target T1, SRp20 (UniProt P84104).
T1 sequence: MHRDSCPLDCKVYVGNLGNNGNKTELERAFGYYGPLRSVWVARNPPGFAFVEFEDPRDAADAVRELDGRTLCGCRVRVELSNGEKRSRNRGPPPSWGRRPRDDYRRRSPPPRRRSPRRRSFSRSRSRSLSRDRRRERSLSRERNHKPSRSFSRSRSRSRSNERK

The target in the next data set is T2, SRp40 (UniProt O35326).
T2 sequence: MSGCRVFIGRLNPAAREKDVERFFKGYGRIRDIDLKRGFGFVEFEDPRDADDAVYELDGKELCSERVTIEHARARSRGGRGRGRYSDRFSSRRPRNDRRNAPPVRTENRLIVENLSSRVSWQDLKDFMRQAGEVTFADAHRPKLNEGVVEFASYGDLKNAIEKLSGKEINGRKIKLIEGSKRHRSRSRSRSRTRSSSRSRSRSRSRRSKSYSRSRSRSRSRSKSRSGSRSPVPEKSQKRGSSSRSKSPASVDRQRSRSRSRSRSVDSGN

A further data set concerns the target T3, SRp55 (UniProt Q3TWW8).
T3 sequence: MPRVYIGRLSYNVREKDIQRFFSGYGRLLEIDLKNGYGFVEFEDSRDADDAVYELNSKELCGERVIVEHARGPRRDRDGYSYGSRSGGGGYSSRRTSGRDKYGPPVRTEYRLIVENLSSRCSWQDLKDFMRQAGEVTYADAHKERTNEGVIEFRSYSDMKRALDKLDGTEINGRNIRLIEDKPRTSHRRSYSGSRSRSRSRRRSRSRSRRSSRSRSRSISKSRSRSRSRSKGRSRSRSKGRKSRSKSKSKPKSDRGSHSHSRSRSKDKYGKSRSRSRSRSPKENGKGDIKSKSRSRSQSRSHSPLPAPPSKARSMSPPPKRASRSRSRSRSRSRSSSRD

In another data set the target is SRp30a (UniProt Q6PDM2).
Sequence of SRp30a (Q6PDM2 2-248): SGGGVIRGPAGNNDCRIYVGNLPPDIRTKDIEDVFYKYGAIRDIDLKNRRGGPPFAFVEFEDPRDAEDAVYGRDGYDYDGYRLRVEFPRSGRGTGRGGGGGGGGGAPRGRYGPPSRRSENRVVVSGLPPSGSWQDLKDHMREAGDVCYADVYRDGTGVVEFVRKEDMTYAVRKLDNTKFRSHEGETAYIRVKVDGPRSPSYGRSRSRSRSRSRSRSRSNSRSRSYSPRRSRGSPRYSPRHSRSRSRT
A further data set concerns the target SRp30b (UniProt Q62093).

We go through three substances from patent publication US7074589.

Sequence of SRp30b (Q62093 2-221): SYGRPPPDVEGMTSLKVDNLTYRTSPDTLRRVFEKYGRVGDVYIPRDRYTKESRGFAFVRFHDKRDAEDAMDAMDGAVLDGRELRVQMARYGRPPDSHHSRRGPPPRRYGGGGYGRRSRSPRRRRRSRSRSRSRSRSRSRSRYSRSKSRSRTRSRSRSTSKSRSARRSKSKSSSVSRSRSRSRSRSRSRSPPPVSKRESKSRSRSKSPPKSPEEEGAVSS

Take GST-mCLK2 fusion protein: the “phosphorylation of SR proteins, in vitro kinase assay with gamma-32P-ATP” value (“phosphorylation of SR proteins” below) was “All mCLK kinases were able to phosphorylate SRp2O, SRp3Oa and to a lesser extent SRp4O and SRp55” with SRp20; “All mCLK kinases were able to phosphorylate SRp2O, SRp3Oa and to a lesser extent SRp4O and SRp55” with SRp40; “All mCLK kinases were able to phosphorylate SRp2O, SRp3Oa and to a lesser extent SRp4O and SRp55” with SRp55; “All mCLK kinases were able to phosphorylate SRp2O, SRp3Oa and to a lesser extent SRp4O and SRp55” in the data set with SRp30a; “mCLK2 and mCLK3 phosphorylated both with almost equal efficiency” in the data set with SRp30b.

GST-mCLK3 fusion protein: the “phosphorylation of SR proteins” value in the data set with SRp20 was “All mCLK kinases were able to phosphorylate SRp2O, SRp3Oa and to a lesser extent SRp4O and SRp55”; with SRp40, “All mCLK kinases were able to phosphorylate SRp2O, SRp3Oa and to a lesser extent SRp4O and SRp55”; with SRp55 it was “All mCLK kinases were able to phosphorylate SRp2O, SRp3Oa and to a lesser extent SRp4O and SRp55”; with SRp30a it was “All mCLK kinases were able to phosphorylate SRp2O, SRp3Oa and to a lesser extent SRp4O and SRp55”; in the data set with SRp30b it was “mCLK2 and mCLK3 phosphorylated both with almost equal efficiency”.

Consider GST-mCLK4 fusion protein, for which the “phosphorylation of SR proteins” value with SRp20 was “All mCLK kinases were able to phosphorylate SRp2O, SRp3Oa and to a lesser extent SRp4O and SRp55”; in the data set with SRp40 it was “All mCLK kinases were able to phosphorylate SRp2O, SRp3Oa and to a lesser extent SRp4O and SRp55”; with SRp55, “All mCLK kinases were able to phosphorylate SRp2O, SRp3Oa and to a lesser extent SRp4O and SRp55”; with SRp30a, “All mCLK kinases were able to phosphorylate SRp2O, SRp3Oa and to a lesser extent SRp4O and SRp55”; in the data set with SRp30b it was “mCLK1 and mCLK4 phosphorylated SRp3Oa (upper band) more strongly than SRp3Ob”.
